# Experimental data as given in article PMC4521999 (Nature, 2015).
# Tests used:
# rhodopsin = rhodopsin (UniProt P02699); conditions: cited from earlier work
# [1] = biological target: T1, His8-MBP-rhodopsin E113Q/M257Y (in N2C/N282C) (human, UniProt P08100 1-348, N2^NtermC | N282^ECL3C | E113^3.28Q | M257^6.40Y); experiment: AlphaScreen or HTRF
# [2] = biological target: WT rhodopsin (1–321)-TEV site-tTA (Tango construct) (human, UniProt P08100 1-321, N2^NtermC | N282^ECL3C); experiment: Tango assay
# [3] = biological target: E113Q/M257Y rhodopsin (1–321)-TEV site-tTA (Tango construct) (human, UniProt P08100 1-321, N2^NtermC | N282^ECL3C | E113^3.28Q | M257^6.40Y); experiment: Tango assay
# [4] = biological target: T1, His8-MBP-rhodopsin E113Q/M257Y (in …); experiment: pull-down
molecule,measurement,setting,value
arrestin (from UniProt P10523),Kd,rhodopsin,50 nM
"untagged 3A_arrestin (residues 10–392) (domain or fragment, mouse, UniProt P20443 10-392, looked up) SHVIFKKVSRDKSVTIYLGKRDYVDHVSQVEPVDGVVLVDPELVKGKKVYVTLTCAFRYGQEDIDVMGLTFRRDLYFSRVQVYPPVGAMSVLTQLQESLLKKLGDNTYPFLLTFPDYLPCSVMLQPAPQDVGKSCGVDFEVKAFASDITDPEEDKIPKKSSVRLLIRKVQHAPPEMGPQPSAEASWQFFMSDKPLNLSVSLSKEIYFHGEPIPVTVTVTNNTDKVVKKIKVSVEQIANVVLYSSDYYVKPVASEETQEKVQPNSTLTKTLVLVPLLANNRERRGIALDGKIKHEDTNLASSTIIKEGIDRTVMGILVSYHIKVKLTVSGFLGELTSSEVATEVPFRLMHPQPEDPAKESVQDENAAAEEFARQNLKDTGENTE",IC50,[1],15 nM
"WT arrestin (10–392)-TEV protease (Tango construct) (domain or fragment, mouse, UniProt P20443 10-392, looked up) SHVIFKKVSRDKSVTIYLGKRDYVDHVSQVEPVDGVVLVDPELVKGKKVYVTLTCAFRYGQEDIDVMGLTFRRDLYFSRVQVYPPVGAMSVLTQLQESLLKKLGDNTYPFLLTFPDYLPCSVMLQPAPQDVGKSCGVDFEVKAFASDITDPEEDKIPKKSSVRLLIRKVQHAPPEMGPQPSAEASWQFFMSDKPLNLSVSLSKEIYFHGEPIPVTVTVTNNTDKVVKKIKVSVEQIANVVLYSSDYYVKPVASEETQEKVQPNSTLTKTLVLVPLLANNRERRGIALDGKIKHEDTNLASSTIIKEGIDRTVMGILVSYHIKVKLTVSGFLGELTSSEVATEVPFRLMHPQPEDPAKESVQDENLVFEEFARQNLKDTGENTE",fold increase of binding with all-trans-retinal,[2],~3 fold
"3A_arrestin (10–392)-TEV protease (Tango construct) (domain or fragment, mouse, UniProt P20443 10-392, looked up) SHVIFKKVSRDKSVTIYLGKRDYVDHVSQVEPVDGVVLVDPELVKGKKVYVTLTCAFRYGQEDIDVMGLTFRRDLYFSRVQVYPPVGAMSVLTQLQESLLKKLGDNTYPFLLTFPDYLPCSVMLQPAPQDVGKSCGVDFEVKAFASDITDPEEDKIPKKSSVRLLIRKVQHAPPEMGPQPSAEASWQFFMSDKPLNLSVSLSKEIYFHGEPIPVTVTVTNNTDKVVKKIKVSVEQIANVVLYSSDYYVKPVASEETQEKVQPNSTLTKTLVLVPLLANNRERRGIALDGKIKHEDTNLASSTIIKEGIDRTVMGILVSYHIKVKLTVSGFLGELTSSEVATEVPFRLMHPQPEDPAKESVQDENAAAEEFARQNLKDTGENTE",fold increase of binding signal with all-trans-retinal,[3],~5 fold
"TGGRVLEDLKSCGLF [GαCT peptide, a high affinity peptide variant of the C-terminus of G-transducin (Gt)]",IC50,[1],700 nM
"35S-labelled 3A_arrestin (L374A/V375A/F376A, in vitro translated) (natural protein, mouse, UniProt P20443 1-403, looked up, 35S-methionine) MAACGKTNKSHVIFKKVSRDKSVTIYLGKRDYVDHVSQVEPVDGVVLVDPELVKGKKVYVTLTCAFRYGQEDIDVMGLTFRRDLYFSRVQVYPPVGAMSVLTQLQESLLKKLGDNTYPFLLTFPDYLPCSVMLQPAPQDVGKSCGVDFEVKAFASDITDPEEDKIPKKSSVRLLIRKVQHAPPEMGPQPSAEASWQFFMSDKPLNLSVSLSKEIYFHGEPIPVTVTVTNNTDKVVKKIKVSVEQIANVVLYSSDYYVKPVASEETQEKVQPNSTLTKTLVLVPLLANNRERRGIALDGKIKHEDTNLASSTIIKEGIDRTVMGILVSYHIKVKLTVSGFLGELTSSEVATEVPFRLMHPQPEDPAKESVQDENAAAEEFARQNLKDTGENTEGKKDEDAGQDE","fold of the binding of WT arrestin to WT rhodopsin, with all-trans-retinal",[4],~60 fold
